Laboratory results reported in publication PMC7736783 (Nucleic Acids Research, 2020).

Target: MTA1 (BAH-ELM2-SANT-ZnF);HDAC1;MBD2 (Homo sapiens?;Homo sapiens?;Homo …, UniProt Q13330;Q13547;Q9UBB5 1-453;1-482;145-411, ||)
Experiment: EMSA; 1 uM DNA with 1- to 10-fold excess of complex; single bound species; EMSA: 20 mM HEPES pH 7.0, 75 mM potassium acetate, 2 mM DTT, 20 min on ice; 5% acrylamide gel in 0.5x TB
Conditions: protein: recombinant;recombinant;recombinant; tags: His10-Flag3 N-terminal, removed by TEV;none;none; chain copies: 2;2;1; label: none (ethidium bromide stain); blunt (annealed complementary oligonucleotides)

MTA1 (BAH-ELM2-SANT-ZnF);HDAC1;MBD2, sequence (Q13330 1-453, chain 1 of 3): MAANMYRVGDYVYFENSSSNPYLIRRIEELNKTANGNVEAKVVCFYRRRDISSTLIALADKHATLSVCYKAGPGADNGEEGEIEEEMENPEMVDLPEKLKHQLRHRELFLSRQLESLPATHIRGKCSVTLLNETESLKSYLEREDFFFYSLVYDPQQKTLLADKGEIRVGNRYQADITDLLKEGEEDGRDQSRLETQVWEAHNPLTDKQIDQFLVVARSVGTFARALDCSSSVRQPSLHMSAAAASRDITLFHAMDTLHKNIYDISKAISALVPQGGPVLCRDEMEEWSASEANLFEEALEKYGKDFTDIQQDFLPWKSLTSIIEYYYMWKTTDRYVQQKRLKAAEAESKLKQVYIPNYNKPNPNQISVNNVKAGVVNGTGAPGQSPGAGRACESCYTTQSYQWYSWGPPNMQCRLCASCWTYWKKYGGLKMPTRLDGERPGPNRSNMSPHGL
MTA1 (BAH-ELM2-SANT-ZnF);HDAC1;MBD2, sequence (Q13547 whole entry, chain 2 of 3): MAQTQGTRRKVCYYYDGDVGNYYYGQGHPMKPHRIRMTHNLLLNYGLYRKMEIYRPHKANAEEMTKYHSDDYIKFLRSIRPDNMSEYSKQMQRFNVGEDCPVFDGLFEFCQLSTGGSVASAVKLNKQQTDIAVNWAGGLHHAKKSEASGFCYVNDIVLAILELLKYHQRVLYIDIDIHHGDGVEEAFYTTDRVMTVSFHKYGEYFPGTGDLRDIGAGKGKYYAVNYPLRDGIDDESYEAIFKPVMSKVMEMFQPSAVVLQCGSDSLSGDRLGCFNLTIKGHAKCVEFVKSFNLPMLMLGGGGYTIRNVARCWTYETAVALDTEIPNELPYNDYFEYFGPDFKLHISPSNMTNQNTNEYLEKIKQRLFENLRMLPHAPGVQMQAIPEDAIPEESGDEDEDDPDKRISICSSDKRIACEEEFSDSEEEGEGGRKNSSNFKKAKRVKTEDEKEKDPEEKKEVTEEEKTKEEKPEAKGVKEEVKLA
MTA1 (BAH-ELM2-SANT-ZnF);HDAC1;MBD2, sequence (Q9UBB5 145-411, chain 3 of 3): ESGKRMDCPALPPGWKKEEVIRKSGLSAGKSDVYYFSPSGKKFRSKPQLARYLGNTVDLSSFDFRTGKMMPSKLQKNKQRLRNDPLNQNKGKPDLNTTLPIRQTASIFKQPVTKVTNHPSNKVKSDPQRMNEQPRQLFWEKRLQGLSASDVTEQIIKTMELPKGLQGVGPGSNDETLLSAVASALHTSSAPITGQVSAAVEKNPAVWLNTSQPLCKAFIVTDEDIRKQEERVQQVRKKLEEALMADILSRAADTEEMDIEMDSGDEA

B1: methylated DNA duplex 15 nt (dsDNA)
DNA 1: GGAATCGGCTCATGC
DNA 2: GCATGAGCCGATTCC
modifications: 5-methylcytosine at C6 of strand 1 (printed mC in CpG); methylation of the complementary strand not stated
B1: binds.
